The binders below were run against Hemagglutinin of influenza A/Solomon Islands/3/06 (H1N1), on inactivated whole virions (Influenza A virus A/Solomon …) (assay: ELISA, B cell culture supernatant on inactivated whole virions).

| Binder | OD450 |
| --- | --- |
| TCN-531 (5091_H13) (antibody, V domains shown) VH: EVQLVESGGDLVQPGRSLKLSCTGSGFTFGDYGVTWVRQAPGKGLEWVGFIRTRPWGGTADTAASVKGRFTISRDDSKSLAYLQMNSLKTEDTAVYYCCRDAPPNVEVASMTNWYFDLWGRGTLVTVSS VL: DIQLTQSPSSLSASVGDRVTITCRASQGILNCLAWYQQKPGKVPNLLMYAASTLQSGVPSRFSGSGFGTDFTLTISSLQPEDVATYYCQTYGGVSTFGGGTKVEIR | 3.23 OD450 |
| TCN-528 (5087_P17) (antibody, V domains shown) VH: QVQLVQSGSEVKKPGASVKVSCKASGYTFTNYDINWIRQAPGQGLEWMGWINPNSGTTGSAQRFQGRVTITVDTSITTVYMELSSLRSDDTAIYYCARGRELLRLQHFLTDSQSERRDCFDPWGQGTLVTVSS VL: DIQMTQSPSSLSASVGDRVTITCRANQDIGIYLNWYQQNPGKVPKLLLHGASSLQGGVPSRFSASGSGTDFTLTIHSLQPEDLATYYCQQSRRLPYTFGQGTRVELK | 3.62 OD450 |
| TCN-526 (5084_C17) (antibody, V domains shown) VH: EVLMVESGGGLVQPGGSVRLSCVASGFSFSSHWMTWVRQAPGKGLEWVANIEDDGGDKYYVDSVKGRFIISRDNAKNSVYLQMNSLRAEDTAVYFCARGSGSSDRSDYDPHYYYYLDVWGKGATVTVSS VL: DIQLTQSPSSLSASVGDRVTITCRASQSISRYLNWYQQKPGKAPKLLLFAASTLLDGVPSRFSGSGSGTDFTLTISSLQPEDFATYYCQRNHSPSWTFGQGTRVEIK | 0.06 OD450 |
| TCN-521 (3280_D18) (antibody, V domains shown) VH: EVQLVQSGGGLVQPGGSLRLACVVSGFTVTSNYITWVRQAPGKGLEWVSVIYSHGRAYYSASVNGRFTISRHTSKNTVYLEMNSLRPEDTAVYYCAGGGLVGGYDEYFFDYWGQGTLATVSS VL: ETVLTQSPGTLSLTPGERATLSCRVGQSVSGSHLAWYQQKPGQAPRLLIYGASSRATGIPDRFGGSVSGTDFTLTISRLEPEDSAVYYCQQYGDSRYTFGQGTKLEIK | 3.7 OD450 |
| TCN-533 (5256_A17) (antibody, V domains shown) VH: QVQLVQSGADVKKPGSSVTVSCKASGGSFSNYGINWVRQAPGQGLEWMGGIIPLINAPNYAPKFQGRVTITADMFSNIVSLQLTSLRTDDTAVYYCARRKMTTAIDYWGQGTLVTVSS VL: QPVLSQPPSASASLGASVTLTCTLSSGFDNYQVAWYQQRPGKGPRFVMRVGNGGNVASKGDGIPDRFSVSGSGLNRYLTIKNIQEDDESDYYCGADHGSGNNFVSPYVFGGGTKLTVL | 3.54 OD450 |
| TCN-527 (5086_C06) (antibody, V domains shown) VH: QVQLQESGPGLVKPSETLSLNCAVSGGSISNYYWSWIRQPPGKGLEWIGYISYNGRPKYNPSLTSRVTISVDTSKDQFSLELRSVTAADTALYYCARETRFGELLSPYDAFEIWGQGTMVTVSS VL: DIQMTQSPSSLSASVGDRVTMTCRASQNIRSYLNWYQQRPGTAPKLLIYAASTLHSGVPSRFSGGGSGTDFTLTINNLQPEDFASYYCQQSYDNPQTFGQGTKVEIK | 3.03 OD450 |
| TCN-523 (5248_A17) (antibody, V domains shown) VH: QVQLVQSGAEVKKPGSSVKVSCKASGGSFSNYAFSWVRQAPGQGLEWMGGTIPLLGTTNYAQKFQGRVTISADQFTSTAYMELGSLRSEDTAVYYCTRRKMTTAFDSWGQGTLVTVSS VL: QPVLTQPPSASASLGASVTLTCTLSSAYSNYKVDWYQQRPGKGPRFVMRVGTGGIVGSKGDGIPDRFSVLGSGLNRYLTIKNIQEEDESDYHCGADHGSGSNFVSPYVFGGGTKLTVL | 3.47 OD450 |
| TCN-536 (5095_N01) (antibody, V domains shown) VH: QVQLQQWGAGLLKPSETLSLTCAVYGGSFSVSGYYWSWIRQPPGRGLEWIGEISHGGSTNYNPSLKSRVTISVDTTKNQFSLRLSSVTAADTAVYYCARGTDPDTEVYCRVGNCAAFDYWGQGSLVTVSS VL: EIILAQSPGTLSLSPGERATLSCRASQFVSTRSLAWYQQRPGQAPRLLIYGASSRATGIPDRFSGSGSGTDFTLTISRLEPEDFAVYYCQHYGYSPRYAFGQGSKVEIK | 3.63 OD450 |
| TCN-534 (5249_B02) (antibody, V domains shown) VH: QVQLVQSGAEVKKPGSSVKVSCRESGGTFNGYTITWVRQAPGQGLEWMGGIIPMMGTVNYAQKLQGRVTITTDYFTKTAYMDLNNLRSEDTAMYYCVKIRYTGQQLLWGQGTLVTVSS VL: DIQMTQSPSTLSASIGDRVTITCRASQSIASWLAWYQQKPGKAPKLLIYEAVNLESGVPSRFSGSGSGTDFTLTISSLQPDDFATYFCQHYGTISQTFGGGTKVEIK | 3.55 OD450 |
| TCN-540 (5060_F05) (antibody, V domains shown) VH: QVQLVQSGGGVVQPGRSLRLSCAASGFTFSSYAMHWVRQAPGKGLEWVAIISYDGNDQYYTDSVKGRFTISRDSSKVYLQMHRLRPEDTAVYYCAKEFETSGYFHGSFDYWGQGILVTVSS VL: QSALTQPASVSGSPGQSITISCTGTSSDVGGYNYVSWYQQHPGKAPKLLIYEVTNWPSGVSNRFSGSKSGNTASLTISGLQAEDEADYYCSSYAGSSTWVFGGGTRVTVL | 0.07 OD450 |
| TCN-563 (5237_B21) (antibody, V domains shown) VH: QVQLAQSGAEVKRPGSSVKVSCTASGGIFRKNAISWVRQAPGQGLEWMGGIIAVFNTANYAQKFQGRVKITADESGNTAYMELSSLRSDDTAVYYCASHPKYFYGSGSYPDFWGQGTLVTVSS VL: QSALTQPRSVSGSPGQSVTISCTGSSSDVGASNSVSWYQQHPGKAPKLVIYDVTERPSGVPHRFSGSKSGNTASLTVSGLQPEDEADYFCCAYGGKYLVVFGGGTKVTVL | 3.62 OD450 |
| TCN-530 (5248_H10a) (antibody, V domains shown) VH: QVQLVQSGAEVRKPGSSVKVSCKASGGPFMSYAIGWVRQAPGQGLEWMGGINPVFGRPHYAQKFQGRVTIATDDSTKTSYMELSSLTSEDTGMYYCASRYSRSSPGTFESWGQGTLVTVSS VL: EIVMTQFPATLSVSPGERVTLSCRASQSVSNNLAWYQQKPGQPPRLLIYDASTRATGVPAKFSGTGSGTEFTLSISSLQSEDFAVYYCQQYHNWPPSYSFGLGTKLEIK | 3.52 OD450 |
| TCN-539 (5056_A08) (antibody, V domains shown) VH: QVQLVESGGGVVQPGRSLRLSCAASEITFITYAMHWVRQAPGKGLEWVALISDDGSNKFYADSVKGRFTISRDNSKNTLYLQMNSLRAEDTAAYYCAREGVYFDSGTYRGYFDYWGQETLVTVSS VL: EIVLTQSPATLSLSPGERATLSCRASQSVSSYLAWYQQKPGQAPRLLIYDASNRATGIPARFSGSGSGTDFTLTISSLEPEDFAVYYCQQRSHWPPITFGQGTRLEIK | 0.06 OD450 |
| TCN-532 (5262_H18) (antibody, V domains shown) VH: QVQLQESGPGLVKPSETLSLTCTVSGGSVSSETYYWSWIRQPPGKGLEWIGYIYYIGNTDYRPSLKSRVTISLDTSKNQFSLKLSSVTAADTAVYYCARGAYYDSSGYPAFYIWGQGTMVTVSS VL: QSVLTQPPSVSGAPGQRVTISCTGSSSNIGSDYDVHWYKQLPGTAPKLLIFGNSNRPSGVPDRFSGSKSGTSASLAITGLQAEDEADYYCQSYDSSLSGFHVFGSGTKVTVL | 0.06 OD450 |
| TCN-535 (5246_P19) (antibody, V domains shown) VH: QVQLVQSGSEVKKPGTSVKVSCTASGSVFTNYGISWVRQAPGQGLEWMGGIIPLFGAAKYAQKFQGRVTITADESTKTVYMELSRLTSKDTAIYFCAKAPRVYEYYFDQWGQGTPVTVSS VL: EIVLTQSPGTLSLSPGERATLSCRASQSVSSSQLAWYQQKPGQAPRLIIYGASTRATGIPDRFSGSGSGTDFTLTIGRLEPEDFAVFFCQQYSTSPPTFGQGTKVDFK | 3.43 OD450 |
